# Data taken from patent publication US20230265151A1, “GIP/GLP1 CO-AGONIST COMPOUNDS” (priority 2020, published 2023).
# Numbering of substitutions follows the chain as printed.
# T1: human GIP receptor (human, UniProt P48546 22-466)
# T1 construct: whole, on cells; also called hGIPR; human glucose-dependent insulinotropic polypeptide receptor
# T1 sequence (looked up): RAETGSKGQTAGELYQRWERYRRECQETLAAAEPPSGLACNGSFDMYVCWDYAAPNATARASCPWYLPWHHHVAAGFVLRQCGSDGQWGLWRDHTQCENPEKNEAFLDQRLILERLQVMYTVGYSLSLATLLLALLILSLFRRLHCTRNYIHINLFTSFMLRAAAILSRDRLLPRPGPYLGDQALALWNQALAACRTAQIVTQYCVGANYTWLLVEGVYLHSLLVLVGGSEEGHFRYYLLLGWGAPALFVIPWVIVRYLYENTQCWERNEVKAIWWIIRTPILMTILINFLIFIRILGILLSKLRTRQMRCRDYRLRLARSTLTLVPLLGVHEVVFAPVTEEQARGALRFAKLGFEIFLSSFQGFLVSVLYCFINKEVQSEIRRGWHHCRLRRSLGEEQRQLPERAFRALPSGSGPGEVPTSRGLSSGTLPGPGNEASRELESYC
# B1: Y-Aib-EGT-αMeF(2F)-TSD-4Pal-SI-αMeL-LD-Orn-K((2-[2-(2-Amino-ethoxy)-ethoxy]-acetyl)-(y-Glu)-CO-(CH2)12-CO2H)AQ-Aib-K((2-[2-(2-Amino-ethoxy)-ethoxy]-acetyl)-(γ-G … (peptide)
# peptide: YXEGTXTSDXSIXLDXKAQXKFIXXLIEGGPSSGAPPPS
# modifications: Aib2, αMeF(2F)6, 4Pal10, αMeL13, Orn16, Aib20, D-Glu24, αMeY25; acylated K17, K21 (groups as in name); C-terminal amide
# B2: Y-Aib-EGT-αMeF(2F)-TSD-4Pal-SI-αMeL-LD-Orn-K((γ-Glu)-(2-[2-(2-Amino-ethoxy)-ethoxy]-acetyl)-CO-(CH2)12-CO2H)AQ-Aib-EFI-(D-Glu)-αMeY-LIEGGK((γ-Glu)-(2-[2-(2-Amin … (peptide)
# peptide: B1 peptide with K21E, P31K
# modifications: Aib2, αMeF(2F)6, 4Pal10, αMeL13, Orn16, Aib20, D-Glu24, αMeY25; acylated K17, K31 (groups as in name); C-terminal amide
# B3: Y-Aib-EGT-αMeF(2F)-TSD-4Pal-SI-αMeL-LD-Orn-K((2-[2-(2-Amino-ethoxy)-ethoxy]-acetyl)2-(γ-Glu)-CO-(CH2)12-CO2H)AQ-Aib-EFI-(D-Glu)-αMeY-LIEGGP S SGAPPP … (peptide)
# peptide: YXEGTXTSDXSIXLDXKAQXEFIXXLIEGGPSSGAPPPSK
# modifications: Aib2, αMeF(2F)6, 4Pal10, αMeL13, Orn16, Aib20, D-Glu24, αMeY25; acylated K17, K40 (groups as in name); C-terminal amide
# B4: Y-Aib-EGT-αMeF(2F)-TSD-4Pal-SI-αMeL-LD-Orn-IAQ-Aib-K((2-[2-(2-Amino-ethoxy)-ethoxy]-acetyl)2-CO-(CH2)12-CO2H)FI-(D-Glu)-αMeY-LIEGGPSSGAPPP … (peptide)
# peptide: B3 peptide with K17I, E21K
# modifications: Aib2, αMeF(2F)6, 4Pal10, αMeL13, Orn16, Aib20, D-Glu24, αMeY25; acylated K21, K40 (groups as in name); C-terminal amide
# B5: Y-Aib-EGT-αMeF(2F)-TSD-4Pal-SI-αMeL-LD-Orn-K((2-[2-(2-Amino-ethoxy)-ethoxy]-acetyl)2-(γ-Glu)-CO-(CH2)10-CH3)AQ-Aib-EFI-(D-Glu)-αMeY-LIEGGP S SGAPPP … (peptide)
# peptide: B3 peptide
# modifications: Aib2, αMeF(2F)6, 4Pal10, αMeL13, Orn16, Aib20, D-Glu24, αMeY25; acylated K17, K40 (groups as in name); C-terminal amide
# B6: Y-Aib-EGT-αMeF(2F)-TSD-4Pal-SI-αMeL-LD-Orn-K((2-[2-(2-Amino-ethoxy)-ethoxy]-acetyl)-(γ-Glu)-(4-(4-tert-butylphenyl)butanoyl))AQ-Aib-EFI-(D-Glu)-αMeY-LIEGGPSSGAP … (peptide)
# peptide: B3 peptide
# modifications: Aib2, αMeF(2F)6, 4Pal10, αMeL13, Orn16, Aib20, D-Glu24, αMeY25; acylated K17, K40 (groups as in name); C-terminal amide
# B7: Y-Aib-EGT-αMeF(2F)-TSD-4Pal-SI-αMeL-LD-Orn-IAQ-Aib-K((2-[2-(2-Amino-ethoxy)-ethoxy]-acetyl)2-(γ-Glu)-CO-(CH2)12-CO2H)FI-(D-Glu)-αMeY-LIEGGPSSGAPPPSK((2-[2-(2-Am … (peptide)
# peptide: B3 peptide with K17I, E21K
# modifications: Aib2, αMeF(2F)6, 4Pal10, αMeL13, Orn16, Aib20, D-Glu24, αMeY25; acylated K21, K40 (groups as in name); C-terminal amide
# B8: Y-Aib-EGT-αMeF(2F)-TSD-4Pal-SI-αMeL-LD-Orn-K((2-[2-(2-Amino-ethoxy)-ethoxy]-acetyl)2-(γ-Glu)-CO-(CH2)14-CH3)AQ-Aib-EFI-(D-Glu)-αMeY-LIEGGPSSGAPPPSK((2-[2-(2-Ami … (peptide)
# peptide: B3 peptide
# modifications: Aib2, αMeF(2F)6, 4Pal10, αMeL13, Orn16, Aib20, D-Glu24, αMeY25; acylated K17, K40 (groups as in name); C-terminal amide
# B9: Y-Aib-EGT-αMeF(2F)-TSD-4Pal-SI-αMeL-LD-Orn-K((2-[2-(2-Amino-ethoxy)-ethoxy]-acetyl)2-(γ-Glu)-(4-(4-tert-butylphenyl)butanoyl))AQ-Aib-EFI-(D-Glu)-αMeY-LIEGGPSSGA … (peptide)
# peptide: B3 peptide
# modifications: Aib2, αMeF(2F)6, 4Pal10, αMeL13, Orn16, Aib20, D-Glu24, αMeY25; acylated K17, K40 (groups as in name); C-terminal amide
# B10: Y-Aib-EGT-αMeF(2F)-TSD-4Pal-SI-αMeL-LD-Orn-IAQ-Aib-K((2-[2-(2-Amino-ethoxy)-ethoxy]-acetyl)2-(γ-Glu)-(4-(4-tert-butylphenyl)butanoyl))FI-(D-Glu)-αMeY-LIEGGPSSGA … (peptide)
# peptide: B3 peptide with K17I, E21K
# modifications: Aib2, αMeF(2F)6, 4Pal10, αMeL13, Orn16, Aib20, D-Glu24, αMeY25; acylated K21, K40 (groups as in name); C-terminal amide
# B11: Y-Aib-EGT-αMeF(2F)-TSD-4Pal-SI-αMeL-LD-Orn-K((2-[2-(2-Amino-ethoxy)-ethoxy]-acetyl)2-(γ-Glu)-(4-(4-tert-butylphenyl)butanoyl))AQ-Aib-EFI-(D-Glu)-αMeY-LIEGGK((2- … (peptide)
# peptide: B1 peptide with K21E, P31K
# modifications: Aib2, αMeF(2F)6, 4Pal10, αMeL13, Orn16, K17(Z1), Aib20, D-Glu24, αMeY25, K31(Z1), C-term NH2; Z1=AEEA2-(γ-Glu)-(4-(4-tert-butylphenyl)butanoyl)
# B12: Y-Aib-EGT-αMeF(2F)-TSD-4Pal-SI-αMeL-LD-Orn-K((2-[2-(2-Amino-ethoxy)-ethoxy]-acetyl)3-(γ-Glu)-CO-(CH2)14-CH3)AQ-Aib-EFI-(D-Glu)-αMeY-LIEGGK((2-[2-(2-Amino-ethoxy … (peptide)
# peptide: B1 peptide with K21E, P31K
# modifications: Aib2, αMeF(2F)6, 4Pal10, αMeL13, Orn16, K17(Z1), Aib20, D-Glu24, αMeY25, K31(Z1), C-term NH2; Z1=AEEA3-(γ-Glu)-CO-(CH2)14-CH3
# Molecular target: human glucagon receptor (human, UniProt P47871 26-477)
# Test: cell-based or functional assay
row,Binder,cAMP EC50 (1.0% HSA) [µM]
1,B1,> 9.95
2,B2,> 9.95
3,B3,> 9.95
4,B4,> 9.95
5,B5,> 9.95
6,B6,> 9.95
7,B7,> 9.95
8,B8,> 9.95
9,B9,> 9.95
10,B10,> 9.95

# Molecular target: T2, human glucagon receptor (human, UniProt P47871 26-477)
# T2 construct: whole, on cells; also called hGCGR; hGcgR
# Test: SPA competition vs [125I]-Gcg, hGcgR membranes
# Method: The binding buffer contains 25 mM 4-(2-hydroxyethyl)-1-piperazineethanesulfonic acid (HEPES), pH 7.4, 2.5 mM CaCl₂, 1 mM MgCh, 0.1% (w/v) bacitracin (Research Products), 0.003% (w/v) Polyoxyethylenesorbitan monolaurate (TWEEN®-20), and Roche Complete™ Protease Inhibitors without EDTA. […] Plates are sealed and mixed on a plate shaker (setting 6) for 1 minute and read with a PerkinElmer Trilux MicroBeta® scintillation counter after 12 hours of incubation/settling time at room temperature.
# (§1) Data are analyzed using four-parameter (curve maximum, curve minimum, IC₅₀, Hill slope) nonlinear regression routines (Genedata Screener, version 12.0.4, Genedata AG, Basal, Switzerland). […] Values for Kᵢ are reported as the geometric mean, with error expressed as the standard error of the mean (SEM) and n is equal to the number of independent replicates (determined in assays performed on different days).
# T2 sequence (P47871 26-477): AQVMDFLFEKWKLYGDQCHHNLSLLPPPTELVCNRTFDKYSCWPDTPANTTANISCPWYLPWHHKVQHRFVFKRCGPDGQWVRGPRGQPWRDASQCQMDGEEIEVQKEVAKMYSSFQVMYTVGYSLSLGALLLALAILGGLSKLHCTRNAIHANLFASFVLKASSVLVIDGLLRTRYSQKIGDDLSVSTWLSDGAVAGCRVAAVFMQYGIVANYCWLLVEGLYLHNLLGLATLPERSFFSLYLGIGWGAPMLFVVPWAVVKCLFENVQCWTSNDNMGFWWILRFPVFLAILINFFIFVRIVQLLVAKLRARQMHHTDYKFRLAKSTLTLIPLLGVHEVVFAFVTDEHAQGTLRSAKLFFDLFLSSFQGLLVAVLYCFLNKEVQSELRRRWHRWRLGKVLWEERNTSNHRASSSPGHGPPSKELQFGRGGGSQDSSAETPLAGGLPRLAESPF
row,Binder,Ki [µM]
1,B11,0.637
2,B12,0.00062

# Molecular target: T1, human GIP receptor
# Test: SPA competition vs [125I]-GIP, hGIPR membranes
# Method: The binding buffer contains 25 mM HEPES, pH 7.4, 2.5 mM CaCl₂, 1 mM MgCl₂, 0.1% (w/v) bacitracin, 0.003% (w/v) TWEEN®-20, and Roche Complete™ Protease Inhibitors without EDTA. […] Plates are sealed and mixed on a plate shaker (setting 6) for 1 minute and read with a PerkinElmer Trilux MicroBeta® scintillation counter after 2.5 to 12 hours of incubation/settling time at room temperature.
# as §1, with “days). Geometric Means are calculated as follows: […]” for “days).”
row,Binder,Ki [pM]
1,B12,30.8
